Laboratory results reported in PMC7572726 (Nature, 2020).

Target: the molecule itself
Test: crystal structure

B1: Flavobacteriaceae sp. STING (ΔTM) (domain or fragment)
chain: EAEYSPAFALAVGYFKNFIFPAITQIKENGEVNPKICIYKPKHFDELTSTNIDMIKAELTNKKYNLSEINLSLKGARARDILTLNKKSKIHSYFDFPNTLLSLYSYVDFKIASSNNNSSELKKKKFVELLIEQFYLKLNELIQENNLTNNITFCDKNLQGL
- stoichiometry N: 2
